# Data: US20050271676A1, “Inducing cellular immune responses to human immunodeficiency virus-1 using peptide and nucleic acid compositions” (Epimmune Inc., priority 1993, published 2005)
# No end group written: not given here.
# Tests used:
# [1] = molecular target: HLA-A*0201 (Homo sapiens, UniProt P04439, D140Y/D185E/D98H/E176V/E277Q/G131W/G231S/I119V/I121R/I166T/I218V/L300P/L318F/N151K/N90K/P208A/P217A/Q86G/Q94H/R138H/R169H/T345S); assay: purified HLA class I binding assay, A*0201; conditions: unit not given; for A*0201 (binding information): Table VIII
# [2] = molecular target: T1, HLA-A*0301 (Homo sapiens, UniProt P04439); assay: purified HLA class I binding assay, A*0301; conditions: for A0301 (HIV A03 Motif Peptides with Binding Information): HIV POL-derived A03 motif peptides, binding value for purified HLA-A*0301, unit not given
# T1 construct: endogenous in cells; host or cells: GM3107
# [3] = molecular target: HLA-A*1101 (Homo sapiens, UniProt P04439, A114D/D185E/E176A/F33Y/L180Q/S129P/T187R); assay: purified HLA class I binding assay, A*1101
# [4] = molecular target: T2, HLA-B*0702 (Homo sapiens, UniProt P01889); assay: purified HLA class I binding assay, B*0702; conditions: for B*0702 binding (HIV B07 Super Motif Peptides with Binding Information): purified HLA-B*0702, binding value without unit; for B*0702 (binding information): HIV B07 supermotif peptides, binding value for purified HLA-B*0702, unit not given
# T2 construct: endogenous in cells; host or cells: GM3107
# [5] = HIV A03 motif peptides, Table XVI, binding value unit not given
# [6] = Table IX, HIV A03 super motif peptides, binding value, unit not given
# [7] = Table XVI, binding value for purified HLA-A*0301, unit not given
# [8] = HIV A11 motif peptides, Table XVII, unit not given
# [9] = Table XVII, HIV A11 motif peptides, binding value for A*1101, printed without unit
# [10] = Table XVII, HIV A11 motif peptides, binding value A*1101, unit not given
# [11] = HIV A03 supermotif peptides, binding value, no unit given
# [12] = Table XVI, HIV POL-derived peptides, unit not given
# [13] = HIV A03 supermotif peptides, Table IX, unit not given
# [14] = binding value to purified HLA-A*1101 in Table XVII, unit not given
# [15] = Table XVII, HIV A11 motif peptides, binding value for purified HLA-A*1101, unit not given
sequence,measurement,setting,value
KAYDTEVIINV,A*0201 (binding information),[1]; HIV A02 super motif peptides,0.0013
KIEELRQIIL,A*0201 (binding information),[1]; HIV A02 super motif peptides,0.0001
KIEELRQIILL,A*0201 (binding information),[1]; HIV A02 supermotif peptides,0.0002
KIWPSIIKGR,A0301 (binding information),[2]; [5],0.0770
KLVDFRELNK,A*0301 binding information,[2]; [6],0.5100
same,"A0301 (binding information, HIV A03 motif peptides)",[2]; [7],0.5100
same,A*1101 (binding information),[3]; [8],0.0900
same,A*1101 (binding information),[3]; [6],0.0900
KPCVKLTPLC,B*0702 binding (HIV B07 Super Motif Peptides with Binding Information),[4],0.0004
KTKGIIRGSII,A*1101 (binding information),[3]; [9],0.0001
KVKQWPLTEE,A0301 (HIV A03 Motif Peptides with Binding Information),[2],0.0750
same,A*1101 (binding information),[3]; [10],0.0330
KVYLAWVPAII,A0301 binding,"[2]; HIV A03 motif peptides, Table XVI, column A0301, unit not given",8.6000
KVYLAWVPAIIK,A*0301 binding information,[2]; [11],8.6000
same,A*1101 (binding information),[3]; [11],2.3000
LGIIQAQVDK,"A0301 (binding information, HIV A03 motif peptides)",[2]; [12],0.0007
LGIPIIPAGLK,A*1101 (binding information),[3]; [10],0.0150
LLQLIVWGIK,A*0301 binding information,[2]; [13],0.0055
same,A*1101 (binding information),[3]; [13],0.0110
LPEKDSWTV,B*0702 (binding information),[4],0.0001
LPGRWKPKM,B*0702 (binding information),[4],0.0038
LPQGWKGSPA,B*0702 (binding information),[4],0.0120
LTEDRWNKPQ,A0301 (binding information),"[2]; HIV A03 motif peptides, Table XVI, unit not given",0.0390
same,A*1101 (binding information),[3]; [9],0.0130
LVITFYWGL,A*0201 (HIV A02 Super Motif Peptides with Binding Information),[1]; binding value for purified HLA-A*0201 as printed in Table VIII,0.0031
LYSAGIRK,A*1101 (HIV A11 Motif Peptides with Binding Information),"[3]; binding to purified HLA-A*1101, unit not given",0.0054
LYSAGIRKYL,A*0201 (binding information),[1]; HIV A02 supermotif peptides,0.0002
MGYELIIPDK,"A0301 (binding information, HIV A03 motif peptides)",[2]; [7],0.0640
MTKILIEPFR,A*1101 (binding information),[3]; [10],0.0160
MVIIQAISPR,A0301 (binding information),[2]; [5],0.1800
same,A*1101 binding,"[3]; HIV A11 motif peptides (GAG), Table XVII, unit not given",0.0670
NPDIVIYQYM,B*0702 (binding information),[4],0.0005
NPQSQGVVES,B*0702 (binding information),[4],0.0001
NTPVPAIK,A*1101 (HIV A11 Motif Peptides with Binding Information),[3]; [14],0.0003
PCIMDGPKVK,A*1101 (binding information),[3]; [10],0.0001
QIYQEPPKNLK,A*0301 binding information,[2]; [11],0.2800
same,A*1101 (binding information),[3]; [11],0.2900
QIYQIEPFKNLK,"A0301 (binding information, HIV A03 motif peptides)",[2]; [12],0.2800
QLDCTIILEGK,"A0301 (binding information, HIV A03 motif peptides)",[2]; [7],0.0010
same,A*1101 (binding information),[3]; [10],0.0003
QPDKSESEIV,B*0702 (binding information),[4],0.0002
QVRDQAEIILK,A0301 (HIV A03 Motif Peptides with Binding Information),[2],0.0089
RIVELLGRR [1273.04],IC50,[2],200 nM
same,IC50,[3],600 nM
SDLEIGQIIR,A*1101 (binding information),[3]; [10],0.0001
SPRTLNAWYK,B*0702 binding (HIV B07 Super Motif Peptides with Binding Information),[4],0.0076
SPTRKELQVW,B*0702 (binding information),[4],0.0025
TACQGVGGPG,A0301 (binding information),[2]; [5],0.0001
same,A*1101 (binding information),[3]; [8],0.0001
TAVQMAVFIII,"A0301 (binding information, HIV A03 motif peptides)",[2]; [7],0.0004
same,A*1101 (binding information),[3]; [10],0.0110
TPGIRYQYNV,B*0702 (binding information),[4],0.0004
TPPLVKLWYQ,B*0702 (binding information),[4],0.0001
TTPDKKIIQK,A0301 (HIV A03 Motif Peptides with Binding Information),[2],0.0002
TYQCTIIGIK,A*1101 (binding information),[3]; [15],0.0460
VASCDKCQLK,A0301 (HIV A03 Motif Peptides with Binding Information),[2],0.0004
same,A*0301 binding information,[2]; [6],0.0004
same,A*1101 (binding information),[3]; [6],0.0004
same,A*1101 (binding information),[3]; [10],0.0004
VAVIIVASGY,"A0301 (binding information, HIV A03 motif peptides)",[2]; [7],0.0004
same,A*1101 (binding information),[3]; [10],0.0001
VPIDPNPQEV,B*0702 binding (HIV B07 Super Motif Peptides with Binding Information),[4],0.0008
VPLDKDFRKY,B*0702 (binding information),[4],0.0002
VPRRKAKII,B*0702 (binding information),[4],0.4800
VPVWKEATTT,B*0702 binding (HIV B07 Super Motif Peptides with Binding Information),[4],0.0022
VTVYYGVPVW,"A0301 (binding information, HIV A03 motif peptides)","[2]; purified HLA-A*0301 binding value as printed in Table XVI, unit not given",0.8600
same,A*1101 (binding information),[3]; [15],4.1000
WTVQVIPLPEK,A0301 (binding information),"[2]; HIV A03 motif peptides, binding value to HLA-A*0301 as printed, no unit given",0.0011
WTYQIYQEPF,"A0301 (binding information, HIV A03 motif peptides)",[2]; [12],0.9200
same,A*1101 (HIV A11 Motif Peptides with Binding Information),[3]; [14],0.0540
YVDRIFYKTLR,A*0301 binding information,[2]; [13],0.0003
same,A*1101 (binding information),[3]; [13],0.0006
